Source: PMC11641334, “The Effect of CBM1 and Linker on the Oxidase, Peroxidase and Monooxygenase Activities of AA9 LPMOs: Insight into Their Correlation with the Nature of Reductants and Crystallinity of Celluloses” (International Journal of Molecular Sciences, 2024)

Assays:
[1] = target: T1, NcLPMO9C∆CBM (Neurospora crassa, UniProt Q7SHI8); test: peroxidase assay, absorbance at […] nm (coerulignone), Michaelis-Menten fit; assay type: biochemical; conditions: 5 mM H2O2 co-substrate; copper-saturated enzyme 1 µM; 100 mM sodium phosphate pH 6.0; 37 °C; read-out: 2,6-DMP / Km
T1 construct: gene gh61-3; Pichia pastoris X33, copper-saturated

[2] = substrate: COc1cccc(OC)c1O; test: purified protein; assay type: biochemical, Neurospora crassa; conditions: 5 mM H2O2 co-substrate, copper-saturated enzyme 1 µM, 100 mM sodium phosphate pH 6.0, 37 °C
[3] = substrate: COc1cccc(OC)c1O; test: purified protein; assay type: biochemical, Aspergillus oryzae; conditions: 5 mM H2O2 co-substrate, copper-saturated enzyme 1 µM, 100 mM sodium phosphate pH 6.0, 37 °C

For COc1cccc(OC)c1O [2,6-DMP], the Km [1] was 1280 ± 120 µM.

B1: NcLPMO9C (Neurospora crassa OR74A) (protein)
chain: HTIFQKVSVNGADQGQLKGIRAPANNNPVTDVMSSDIICNAVTMKDSNVLTVPAGAKVGHFWGHEIGGAAGPNDADNPIAASHKGPIMVYLAKVDNAATTGTSGLKWFKVAEAGLSNGKWAVDDLIANNGWSYFDMPTCIAPGQYLMRAELIALHNAGSQAGAQFYIGCAQINVTGGGSASPSNTVSFPGAYSASDPGILINIYGGSGKTDNGGKPYQIPGPALFTCPAGGSGGSSPAPATTASTPKPTSASAPKPVSTTASTPKPTNGSGSGTGAAHSTKCGGSKPAATTKASNPQPTNGGNSAVRAAALYGQCGGKGWTGPTSCASGTCKFSNDWYSQCLP
notes: wild type with 79-residue linker and CBM1, C4-oxidizing; Pichia pastoris X33, N-glycosylated, Ni-NTA, copper-saturated
B1 was tested, and the Km [2] was 940 ± 90 µM and the kcat [2] was 0.58 ± 0.02 s⁻¹.

B2: AoLPMO9A (Aspergillus oryzae RIB40) (protein)
chain: HGYVSGVVIDGQYYGGYLVDKYAYSDNAPDTIGWTTSATDLGFVDGTGYQSPDIICHKDGAPGALTAEVAAGGKIELQWTEWPESHHGPVLNYLAPCGGECSAVDKTTLEFFKIEAKGLIDGTTPPGQWATDDLISNNNSYTVTIPTSIQEGNYVLRHEIIGLHSAGQKDGAQNYPQCINIKVTGGGDATPAGTAGEALYKDTDAGILFDIYSDLSGGYPIPGPEVFSA
notes: wild type, C1/C4-oxidizing, no CBM1; Pichia pastoris X33, N-glycosylated, Ni-NTA, copper-saturated
Molecule B2 has a Km [3] of 1760 ± 310 µM and a kcat [3] of 1.48 ± 0.09 s⁻¹.

B3: AoLPMO9B (Aspergillus oryzae RIB40) (protein)
chain: HGHVSNIVINGVYYEGFDINSFPYMGESAPTVAAWTTPNTGNGPLAPDDYSSPDIICHQNATAGKGYVEVNAGDRISLQWTPWPESHHGPVVDYLARCEPNCASVDKTSLEFFKIDGVGIVDGSSVPGVWGDDQLIQNNNTWLVEIPKSIAPGYYVLRHELIALHSAGTEGGAQNYPSCFNLKVNGEGTDKPAGVVGTELYTPTGDGIIFNIYQTVSEYPVPGPTLYSGAATGVTQAASTVTSTGTALTVGAAATTPASGSGASSSAAPSSSAAATPSSSAAPSSSAAARR
notes: as for B2
Work on B3 yielded a Km [3] of 1550 ± 140 µM and a kcat [3] of 1.33 ± 0.04 s⁻¹.
